The results in this text go back to patent US20240376207A1.

Common to all, as to assay: cell-based or functional assay
The target of experiment [1] is human PVRIG expressed on cells (human) (UniProt Q6DKI7).
The target is the same in experiment [2]. The source holds these as a separate data set.
Experiment [3] shares this target. The source holds these as a separate data set.

Where two headings read alike, the source gives them in different places.

human PVRIG expressed on cells (human), sequence (Q6DKI7 41-326 limits assumed, form in doubt): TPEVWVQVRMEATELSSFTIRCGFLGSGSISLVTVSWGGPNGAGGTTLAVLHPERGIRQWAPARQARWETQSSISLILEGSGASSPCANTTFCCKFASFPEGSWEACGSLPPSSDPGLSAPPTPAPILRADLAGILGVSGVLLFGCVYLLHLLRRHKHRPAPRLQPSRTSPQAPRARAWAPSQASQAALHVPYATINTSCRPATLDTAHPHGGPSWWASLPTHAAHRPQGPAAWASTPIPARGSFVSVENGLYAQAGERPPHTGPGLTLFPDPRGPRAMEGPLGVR

In experiment [1], IgG4 (control antibody) gave an MLR IFNγ (pg/mL), 20 nM antibody (control baseline) of 74 pg/mL and an MLR IFNγ (pg/mL), 100 nM antibody (control baseline) of 89 pg/mL. In experiment [2], the MLR IFNγ (pg/mL), 4 nM antibody (control baseline) was 984 pg/mL; the MLR IFNγ (pg/mL), 20 nM antibody (control baseline) turned out to be 814 pg/mL; the MLR IFNγ (pg/mL), 100 nM antibody (control baseline) was 1310 pg/mL; the NK92 killing of K562, killing activity (%), 20 nM antibody (control baseline) is 22%. This substance also returned an NK92 killing of K562, killing activity (%), 100 nM antibody (control baseline) in experiment [2] of 22%. In experiment [3], this substance showed an NK92 killing of K562, killing activity (%), 4 nM antibody (control baseline) of 11.2%; an NK92 killing of K562, killing activity (%), 20 nM antibody (control baseline) of 11.7%; an NK92 killing of K562, killing activity (%), 100 nM antibody (control baseline) of 9.2%.
